Source: patent US20210171621A1
pKd: −log10 of the molar value.

What was measured:
[1] = target: human IL-5 protein (purchased from Beijing Yiqiao Shenzhou) (human) (UniProt P05113); assay: cell-based or functional assay
[2] = target: human IL-5 protein (purchased from Beijing Yiqiao Shenzhou) (human) (UniProt P05113); assay: SPR Biacore T200, antibody captured on Protein A/G, IL-5 as analyte
[3] = target: IL-5 mutant 104L to Alanine, with His-tag (human) (UniProt P05113); assay: capture ELISA: His-tagged IL-5 from HEK293E supernatant captured with murine anti-His antibody, detected with Goat-anti-Human-Fc-Specific-HRP; mean of four wells
[4] = target: IL-5 mutant 86C to Alanine, with His-tag (human) (UniProt P05113); assay: as above
[5] = target: IL-5 mutant 96F to Alanine, with His-tag (human) (UniProt P05113); assay: as above

Chain of Nucala (Mepolizumab) (antibody) (VH): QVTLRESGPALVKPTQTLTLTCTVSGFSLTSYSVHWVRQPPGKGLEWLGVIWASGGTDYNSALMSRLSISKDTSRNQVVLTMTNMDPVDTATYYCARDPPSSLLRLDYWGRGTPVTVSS
Chain of Nucala (Mepolizumab) (antibody) (VL): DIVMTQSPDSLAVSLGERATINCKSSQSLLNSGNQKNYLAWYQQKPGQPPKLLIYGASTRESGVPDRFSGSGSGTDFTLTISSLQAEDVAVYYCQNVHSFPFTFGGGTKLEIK

IC50 for inhibiting IL-5-induced TF-1 cell proliferation (Nucala) [1]: 0.0708 µg/mL
pKd [2]: 9.70
OD450 [3]: 0.109
OD450 [4]: 0.0967
OD450 [5]: 0.19
Substance: Nucala (Mepolizumab) (antibody)
